# “Also recorded” adds a separate entry of the source. Read-outs that look alike come from different tables or passages of the source.
# Experiments:
# E. coli XL1-blue cells = assay: Minimum inhibitory concentration (MIC) of cefotaxime on plated bacterial cells; assay type: cell-based; conditions: for MIC: Escherichia coli, XL1BLUECELLS, 24 h, about 1,000 cells per plate, 24 hours at 37° C.
# Protocol: The minimum inhibitory concentration (MIC) of cefotaxime on bacterial cells lacking a plasmid is determined by plating 10 μl of a 10^−2 dilution of an overnight bacterial culture (about 1000 cfu) of E. coli XL1-blue cells (Stratagene, San Diego Calif.) on plates with varying levels of cefotaxime (Sigma, St. Louis Mo.), followed by incubation for 24 hours at 37° C.
# Growth on cefotaxime is sensitive to the density of cells, and therefore similar numbers of cells needed to be plated on each plate (obtained by plating on plain LB plates). Platings of 1000 cells are consistently performed.
# After digestion of the 900 bp product with the terminal restriction enzyme SfiI and agarose gel purification, the 900 bp product is ligated into the vector pUC182Sfi at the unique SfiI site with T4 DNA ligase (BRL, Gaithersburg Md.). The mixture is electroporated into E. coli XL1-blue cells and plated on LB plates with 0.32-0.64 μg/ml of cefotaxime (Sigma, St. Louis Mo.). The cells were grown for up to 24 hours at 37° C. and the resulting colonies are scraped off the plate as a pool and used as the PCR template for the next round of shuffling.
# The transformants obtained after each of three rounds of shuffling are plated on increasing levels of cefotaxime. The colonies (>100, to maintain diversity) from the plate with the highest level of cefotaxime are pooled and used as the template for the PCR reaction for the next round.
# Colonies obtained at 5-10 μg/ml are used for a third round similar to the first and second rounds except the cells are plated on LB plates having 80-160 μg/ml of cefotaxime. After the third round, colonies are obtained at 80-160 μg/ml, and after replating on increasing concentrations of cefotaxime, colonies could be obtained at up to 320 μg/ml after 24 hours at 37° C.
# Growth on cefotaxime is dependent on the cell density, requiring that all the MICs be standardized (in our case to about 1,000 cells per plate). […] The 5 largest colonies grown at 1,280 μg/ml are plated for single colonies twice, and the SfiI inserts are analyzed by restriction mapping of the colony PCR products.
# [1] = test system: Gallus gallus FPP synthase (prenyl transferase activity); assay: Detection of prenyl transferase activity by luminescence measurement (PPi light assay); assay type: biochemical; conditions: DMAPP and IPP substrates, two hours at room temperature, in vitro synthesized Strep-Tag protein, versus wild type control
# Protocol: After gene assembly was completed, the NEB PURExpress in vitro protein synthesis kit was used according to the manufacturer's instructions to produce the variant FPP synthase proteins. After protein synthesis, Strep-Tag magnetic beads (IBA GmbH) were used to isolate the synthesized proteins, after washing the beads with assay buffer (25 mm HEPES pH 7.4, 10 mM MgCl2).
# After synthesis, the activity level of the synthesized protein was measured as described in Example 5 by luminescence. Because most mutations are anticipated to be detrimental, it is unlikely for any pool of mutants to have a higher activity than the wild-type protein; pools with higher activity than […] must be deconvoluted to identify individual beneficial mutants.
# The residue numbers are reported using the wild-type sequence numbering (SEQ ID NO: 1). The winning pools of nine variants are again resynthesized as discrete mutants and activity measurements are repeated.
# This example describes the detection of prenyl transferase activity by luminescence measurement. In this example, an avian FPP synthase (Genbank Accession No. P08836) (SEQ ID NO: 1) was used as the parent prenyl transferase. The parent prenyl transferase was codon-optimized (SEQ ID NO: 21) and inserted into a vector. The nucleic acid sequence of SEQ ID NO: 22 was cloned into the bacterial expression vector pET-21a(+) (FIG. 10) under the control of a T7 promoter. A reaction buffer was produced by mixing 4 μl of 10× reaction buffer (250 mM HEPES pH 7.4, 100 mM MgCl2), 0.2 μl of 1M dithiothreitol, 1 μl of 10 mM DMAPP, 2 μl of 10 mM IPP, and 31.8 μl of water. 1 ng of the Avian FPP synthase (SEQ ID NO: 22) was added to the 39 μl of reaction buffer in a white 96 well microplate. The reaction was sealed with an adhesive plastic cover and allowed to progress for two hours at room temperature.
# The PPi light detection and conversion reagents were prepared as instructed by the manufacturer (Lonza Group Ltd., Basel, Switzerland). After the two hour incubation, 40 μl of the conversion reagent, and 40 μl of the detection reagent were added to the wells of the microplate, and the microplate was sealed with an aluminum foil cover. After sixty minutes, the aluminum cover was removed, and the luminescence emitted from each well was measured with a 96 well plate reader in glow luminescence mode. The total luminescence is reported as Relative Luminescence Units (RLU). […] For this study, each pool is a mixture of variants at a single amino acid position.
molecule,measurement,setting,value
CO/N=C(\C(=O)N[C@@H]1C(=O)N2C(C(=O)O)=C(COC(C)=O)CS[C@H]12)c1csc(N)n1 [cefotaxime],MIC,"E. coli XL1-blue cells; read-out: MIC of cefotaxime, cells carrying the starting (unshuffled) gene on pUC18 derivative",~0.02 µg/mL
same,MIC,"E. coli XL1-blue cells; read-out: MIC of cefotaxime, mutant after the third round of shuffling and replating",320 µg/mL
same,cefotaxime level at which growth is obtained,"E. coli XL1-blue cells; at higher cell densities, after third round of shuffling",up to 1280 μg/ml
same,fold increased resistance to cefotaxime,E. coli XL1-blue cells; selected mutant versus starting gene,"16,000 fold"
"Thr269Tyr: Gallus gallus FPP synthase (SEQ ID NO: 1) point mutation Thr269Tyr (protein, listed as Gallus gallus) MHKFTGVNAKFQQPALRNLSPVVVEREREEFVGFFPQIVRDLTEDGIGHPEVGDAVARLKEVLQYNAPGGKCNRGLTVVAAYRELSGPGQKDAESLRCALAVGWCIELFQAFFLVADDIMDQSLTRRGQLCWYKKEGVGLDAINDSFLLESSVYRVLKKYCRQRPYYVHLLELFLQTAYQTELGQMLDLITAPVSKVDLSHFSEERYKAIVKYKTAFYSFYLPVAAAMYMVGIDSKEEHENAKAILLEMGEYFQIQDDYLDCFGDPALYGKVGTDIQDNKCSWLVVQCLQRVTPEQRQLLEDNYGRKEPEKVAKVKELYEAVGMRAAFQQYEESSYRRLQELIEKHSNRLPKEIFLGLAQKIYKRQK","prenyl transferase activity measured by luminescence, compared with wild type",[1],increased prenyl transferase activity as compared to the wild type protein; also recorded: activity greater than wild-type
same,"prenyl transferase activity measured by luminescence, compared with wild type",[1]; listed as Thr—269_Tyr,more activity than the wild type protein sequence
"Thr269Asp: Gallus gallus FPP synthase (SEQ ID NO: 1) point mutation Thr269Asp (protein, listed as Gallus gallus) MHKFTGVNAKFQQPALRNLSPVVVEREREEFVGFFPQIVRDLTEDGIGHPEVGDAVARLKEVLQYNAPGGKCNRGLTVVAAYRELSGPGQKDAESLRCALAVGWCIELFQAFFLVADDIMDQSLTRRGQLCWYKKEGVGLDAINDSFLLESSVYRVLKKYCRQRPYYVHLLELFLQTAYQTELGQMLDLITAPVSKVDLSHFSEERYKAIVKYKTAFYSFYLPVAAAMYMVGIDSKEEHENAKAILLEMGEYFQIQDDYLDCFGDPALDGKVGTDIQDNKCSWLVVQCLQRVTPEQRQLLEDNYGRKEPEKVAKVKELYEAVGMRAAFQQYEESSYRRLQELIEKHSNRLPKEIFLGLAQKIYKRQK","prenyl transferase activity measured by luminescence, compared with wild type",[1],increased prenyl transferase activity as compared to the wild type protein; also recorded: activity greater than wild-type
same,"prenyl transferase activity measured by luminescence, compared with wild type",[1]; listed as Thr—269_Asp,more activity than the wild type protein sequence
"Thr269Gln: Gallus gallus FPP synthase (SEQ ID NO: 1) point mutation Thr269Gln (protein, listed as Gallus gallus) MHKFTGVNAKFQQPALRNLSPVVVEREREEFVGFFPQIVRDLTEDGIGHPEVGDAVARLKEVLQYNAPGGKCNRGLTVVAAYRELSGPGQKDAESLRCALAVGWCIELFQAFFLVADDIMDQSLTRRGQLCWYKKEGVGLDAINDSFLLESSVYRVLKKYCRQRPYYVHLLELFLQTAYQTELGQMLDLITAPVSKVDLSHFSEERYKAIVKYKTAFYSFYLPVAAAMYMVGIDSKEEHENAKAILLEMGEYFQIQDDYLDCFGDPALQGKVGTDIQDNKCSWLVVQCLQRVTPEQRQLLEDNYGRKEPEKVAKVKELYEAVGMRAAFQQYEESSYRRLQELIEKHSNRLPKEIFLGLAQKIYKRQK","prenyl transferase activity measured by luminescence, compared with wild type",[1],increased prenyl transferase activity as compared to the wild type protein; also recorded: activity greater than wild-type
same,"prenyl transferase activity measured by luminescence, compared with wild type",[1]; listed as Thr—269_Gln,more activity than the wild type protein sequence
